In publication PMC4822050, “Hemi-methylated DNA opens a closed conformation of UHRF1 to facilitate its histone recognition” (Nature Communications, 2016):

Legend:
SRA (human) = target: T1, SRA (human) (UniProt Q96T88); assay: FP; conditions: DNA length series; 5-methyl-dC (hemi-methylated CpG); ITC: 10 mM HEPES pH 8.0, 100 mM NaCl, 18 C; EMSA: 20 mM HEPES pH 7.5, 100 mM NaCl, 8% glycerol, 1 mM DTT, on ice; pull-down: 20 mM HEPES-NaOH pH 8.0, 100 mM …
T1 sequence: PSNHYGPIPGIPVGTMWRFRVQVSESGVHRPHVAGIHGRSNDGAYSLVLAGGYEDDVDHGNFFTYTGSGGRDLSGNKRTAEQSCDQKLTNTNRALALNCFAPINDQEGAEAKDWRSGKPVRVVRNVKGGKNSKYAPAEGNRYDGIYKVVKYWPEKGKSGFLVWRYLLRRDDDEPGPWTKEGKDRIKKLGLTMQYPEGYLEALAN

SRA-Spacer (human) = target: T2, SRA-Spacer (human) (UniProt Q96T88); assay: FP; conditions: DNA length series; 5-methyl-dC (hemi-methylated CpG); ITC: 10 mM HEPES pH 8.0, 100 mM NaCl, 18 C; EMSA: 20 mM HEPES pH 7.5, 100 mM NaCl, 8% glycerol, 1 mM DTT, on ice; pull-down: 20 mM HEPES-NaOH pH 8.0, 100 mM …
T2 sequence: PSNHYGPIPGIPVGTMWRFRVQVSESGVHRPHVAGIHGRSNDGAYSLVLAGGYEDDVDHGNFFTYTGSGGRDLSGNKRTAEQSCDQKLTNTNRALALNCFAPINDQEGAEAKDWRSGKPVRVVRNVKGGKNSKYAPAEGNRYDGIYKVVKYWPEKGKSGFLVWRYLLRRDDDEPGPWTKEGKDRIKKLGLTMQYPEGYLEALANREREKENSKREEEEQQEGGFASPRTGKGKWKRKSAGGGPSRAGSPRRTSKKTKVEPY

PHD-SRA of UHRF1 (human) = assay: ITC; 0.05 mM protein in the cell, 0.5 mM protein or peptide in the syringe, iTC200, 18 °C, 10 mM HEPES pH 8.0, 100 mM NaCl
UHRF1 TTD, 134-285 = UHRF1 TTD, 134-285 (UniProt Q96T88); assay: ITC; conditions: reference: unmodified Spacer642–664 peptide; sites S651

Sequence of UHRF1 Spacer, 642-664 (Q96T88 134-285, change not shown): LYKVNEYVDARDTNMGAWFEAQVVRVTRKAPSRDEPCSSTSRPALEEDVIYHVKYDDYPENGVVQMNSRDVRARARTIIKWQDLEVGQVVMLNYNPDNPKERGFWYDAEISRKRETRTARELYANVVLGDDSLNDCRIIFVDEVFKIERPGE

| Substance | Kd (SRA (human)) [µM] | Kd (SRA-Spacer (human)) [µM] | fold decrease in binding affinity against the PHD alone (PHD-SRA of UHRF1 (human)) [fold] | binding against the reference (UHRF1 TTD, 134-285) |
| --- | --- | --- | --- | --- |
| FAM-16bp-HM-DNA | 29.4 | 0.39 |  |  |
| FAM-20bp-HM-DNA | 9.59 | 0.4 |  |  |
| H3 peptide (1–17) (from UniProt P68431 2-18) |  |  | 8 |  |
| UHRF1 Spacer, 642-664 (from UniProt Q96T88) pS651 Spacer642–664 peptide |  |  |  | weaker |
